From patent US20200362323 come the findings set out here.

What all share (experiment): cell_activity
Data set [1] deals with mouse TRA2-TALEN right (artificial (Xanthomonas TALE-FokI)?). The following applies: SSA reporter assay in HEK293T, pair with left TALEN; site given as top strand. (A reporter such as luciferase makes a cellular process visible.)
Data set [2] concerns mouse TRA2-TALEN left (artificial (Xanthomonas TALE-FokI)?). The following applies: SSA reporter assay in HEK293T, pair with right TALEN.
In data set [3] the test system is mouse TRB1-TALEN right (artificial (Xanthomonas TALE-FokI)?). The following applies: SSA reporter assay in HEK293T, pair with left TALEN; site given as top strand.
For data set [4], the system named is mouse TRB2-TALEN right (artificial (Xanthomonas TALE-FokI)?). To be noted: SSA reporter assay in HEK293T, pair with left TALEN; site given as top strand.
The test system of data set [5] is mouse TRB1-TALEN left (artificial (Xanthomonas TALE-FokI)?). The following applies: SSA reporter assay in HEK293T, pair with right TALEN.
Data set [6] concerns mouse TRB2-TALEN left (artificial (Xanthomonas TALE-FokI)?). The following applies: SSA reporter assay in HEK293T, pair with right TALEN.

Turning to “AATGTGCCGAAAACCATGGA (double strand) [mouse TRA2 right target]”, the activity (fold vs ZFA36) in data set [1] worked out at 3.09.
“TCTGCCTGTTCACCGACT (double strand) [mouse TRA2 left target]” yielded an activity (fold vs ZFA36) in data set [2] of 3.09.
In turn, “AAAAGCAGAGATTGCAAACA (double strand) [mouse TRB1 right target]” registered an activity (fold vs ZFA36) in data set [3] of 3.79.
“GGAGCTGAGCTGGTGGGTGA (double strand) [mouse TRB2 right target]” registered an activity (fold vs ZFA36) in data set [4] of 3.41.
“TGACTCCACCCAAGGTCTCC (double strand) [mouse TRB1 left target]” had an activity (fold vs ZFA36) in data set [5] of 3.79.
As for “TGTGCTTGGCCAGGGGCTTC (double strand) [mouse TRB2 left target]”, in data set [6], the activity (fold vs ZFA36) worked out at 3.41.
